Source: US20230212304A1 (BIOSION, published 2023)

T1: recombinant human CTLA4-his protein (Acro biosystems, Cat#CT4-H5229) (human, UniProt P16410 37-162)
T1 construct: bought recombinant protein; not shown: his tag
T1 sequence (looked up): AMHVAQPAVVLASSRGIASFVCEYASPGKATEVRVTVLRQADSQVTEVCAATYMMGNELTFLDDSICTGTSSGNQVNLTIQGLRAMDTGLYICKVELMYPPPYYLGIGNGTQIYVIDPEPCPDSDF


Biological target: T1, recombinant human CTLA4-his protein …
Assay: BLI, Octet; antibody from cell supernatant on AHC sensor, CTLA4-his as analyte
Protocol: Briefly, AHC biosensors (anti-human IgG Fc capture, from ForteBio) were presoaked with 10 mM glycine (pH 1.5) for 3 seconds, and then dipped in a well with running buffer (0.5% w/v BSA in PBST) for 3 seconds, the soaking and dipping steps were repeated for three times. […] A new baseline was run for 180 seconds in another well with running buffer. […] Finally, sensors were presoaked with 10 mM glycine (pH 1.5) for 3 seconds, and then were dipped in a well with running buffer for 3 seconds, the soaking and dipping steps repeated for three times. The association and dissociation curves were fit to a 1:1 Langmuir binding model using ForteBio Data Analysis 8.1.

| Binder | Kd | koff | kon |
| --- | --- | --- | --- |
| huC1D1-V6 (antibody, human IgG4 S228P, kappa, V domains shown, humanized IgG4/kappa; tested as 293F cell supernatant on Octet; also called hu CTLA4 C1D1-V6) VH: EVQLVESGGGLVQPGRSLRLSCTASGFTFSDNWMNWVRQAPGKGLEWVAQIRNKPYNYETYYSDSVKGRFTISRDDSKSIAYLQMNSLKTEDTAVYYCTGGMDYWGQGTTVTVSS VL: DIQMTQSPSSLSASVGDRVTITCGASEIIYGALNWYQQKPGKSPKLLIYGATNLADGVPSRFSGSGSGTDFTLTISSLQPEDVATYYCQKILSPPPWTFGGGTKVEIKR | 0.821 nM | 0.000287 s⁻¹ | 349000 M⁻¹ s⁻¹ |
| huC1D1-V7 (antibody, human IgG4 S228P, kappa, V domains shown, humanized IgG4/kappa; tested as 293F cell supernatant on Octet; also called hu CTLA4 C1D1-V7) VH: EVQLVESGGGLVQPGRSLRLSCTASGFTFSDNWMNWVRQAPGKGLEWVGQIRNKPYNYETYYSDSVKGRFTISRDDSKSIVYLQMNSLKTEDTAVYYCTGGMDYWGQGTTVTVSS VL: DIQMTQSPSSLSASVGDRVTITCGASEIIYGALNWYQQKPGKSPKLLIYGATNLADGVPSRFSGSGSGTDFTLTISSLQPEDVATYYCQKILSPPPWTFGGGTKVEIKR | 0.362 nM | 0.000169 s⁻¹ | 466000 M⁻¹ s⁻¹ |
| huC1D1-V2 (antibody, human IgG4 S228P, kappa, V domains shown, humanized IgG4/kappa; tested as 293F cell supernatant on Octet; also called hu CTLA4 C1D1-V2) VH: EVQLVESGGGLVQPGRSLRLSCTASGFTFSDNWMNWVRQAPGKGLEWVAQIRNKPYNYETYYSDSVKGRFTISRDDSKSIAYLQMNSLKTEDTAVYYCTGGMDYWGQGTTVTVSS VL: DIQMTQSPSSLSASVGDRVTITCGASEIIYGALNWYQQKPGKSPKLLIYGATNLADGMPSRFSGSGSGRDYTLTISSLQPEDVATYYCQKILSPPPWTFGGGTKVEIKR | 0.559 nM | 0.000149 s⁻¹ | 267000 M⁻¹ s⁻¹ |
| huC1D1-V10 (antibody, human IgG4 S228P, kappa, V domains shown, humanized IgG4/kappa; tested as 293F cell supernatant on Octet; also called hu CTLA4 C1D1-V10) VH: EVQLVESGGGLVQPGRSLRLSCTASGFTFSDNWMNWVRQAPGKGLEWVAQIRNKPYNYETYYSDSVKGRFTISRDDSKSIAYLQMNSLKTEDTAVYYCTGGMDYWGQGTTVTVSS VL: DIQMTQSPSSLSASVGDRVTITCGASEIIYGALNWYQQKPGKVPKLLIYGATNLADGVPSRFSGSGSGTDFTLTISSLQPEDVATYYCQKILSPPPWTFGGGTKVEIKR | 0.943 nM | 0.000304 s⁻¹ | 322000 M⁻¹ s⁻¹ |
| huC1D1-V9 (antibody, human IgG4 S228P, kappa, V domains shown, humanized IgG4/kappa; tested as 293F cell supernatant on Octet; also called hu CTLA4 C1D1-V9) VH: EVQLVESGGGLVQPGRSLRLSCTASGFTFSDNWMNWVRQAPGKGLEWVAQIRNKPYNYETYYSDSVKGRFTISRDDSKSIVYLQMNSLKTEDTAVYYCTGGMDYWGQGTTVTVSS VL: DIQMTQSPSSLSASVGDRVTITCGASEIIYGALNWYQQKPGKVPKLLIYGATNLADGVPSRFSGSGSGTDFTLTISSLQPEDVATYYCQKILSPPPWTFGGGTKVEIKR | 0.736 nM | 0.000228 s⁻¹ | 310000 M⁻¹ s⁻¹ |
| huC1D1-V11 (antibody, human IgG4 S228P, kappa, V domains shown, humanized IgG4/kappa; tested as 293F cell supernatant on Octet; also called hu CTLA4 C1D1-V11) VH: EVQLVESGGGLVQPGRSLRLSCTASGFTFSDNWMNWVRQAPGKGLEWVGQIRNKPYNYETYYSDSVKGRFTISRDDSKSIVYLQMNSLKTEDTAVYYCTGGMDYWGQGTTVTVSS VL: DIQMTQSPSSLSASVGDRVTITCGASEIIYGALNWYQQKPGKVPKLLIYGATNLADGVPSRFSGSGSGTDFTLTISSLQPEDVATYYCQKILSPPPWTFGGGTKVEIKR | 1.25 nM | 0.000457 s⁻¹ | 365000 M⁻¹ s⁻¹ |
| huC1D1-V1 (antibody, human IgG4 S228P, kappa, V domains shown, humanized IgG4/kappa; tested as 293F cell supernatant on Octet; also called huCTLA4 C1D1-V1) VH: EVQLVESGGGLVQPGRSLRLSCTASGFTFSDNWMNWVRQAPGKGLEWVAQIRNKPYNYETYYSDSVKGRFTISRDDSKSIVYLQMNSLKTEDTAVYYCTGGMDYWGQGTTVTVSS VL: DIQMTQSPSSLSASVGDRVTITCGASEIIYGALNWYQQKPGKSPKLLIYGATNLADGMPSRFSGSGSGRDYTLTISSLQPEDVATYYCQKILSPPPWTFGGGTKVEIKR | 0.184 nM | 4.61e-05 s⁻¹ | 250000 M⁻¹ s⁻¹ |
| huC1D1-V12 (antibody, human IgG4 S228P, kappa, V domains shown, humanized IgG4/kappa; tested as 293F cell supernatant on Octet; also called hu CTLA4 C1D1-V12; huC1D1-VI2) VH: EVQLVESGGGLVQPGRSLRLSCTASGFTFSDNWMNWVRQAPGKGLEWVGQIRNKPYNYETYYSDSVKGRFTISRDDSKSIAYLQMNSLKTEDTAVYYCTGGMDYWGQGTTVTVSS VL: DIQMTQSPSSLSASVGDRVTITCGASEIIYGALNWYQQKPGKVPKLLIYGATNLADGVPSRFSGSGSGTDFTLTISSLQPEDVATYYCQKILSPPPWTFGGGTKVEIKR | 0.995 nM | 0.000304 s⁻¹ | 306000 M⁻¹ s⁻¹ |
| huC1D1-V4 (antibody, human IgG4 S228P, kappa, V domains shown, humanized IgG4/kappa; tested as 293F cell supernatant on Octet; also called hu CTLA4 C1D1-V4) VH: EVQLVESGGGLVQPGRSLRLSCTASGFTFSDNWMNWVRQAPGKGLEWVGQIRNKPYNYETYYSDSVKGRFTISRDDSKSIAYLQMNSLKTEDTAVYYCTGGMDYWGQGTTVTVSS VL: DIQMTQSPSSLSASVGDRVTITCGASEIIYGALNWYQQKPGKSPKLLIYGATNLADGMPSRFSGSGSGRDYTLTISSLQPEDVATYYCQKILSPPPWTFGGGTKVEIKR | 0.952 nM | 0.000229 s⁻¹ | 240000 M⁻¹ s⁻¹ |
| huC1D1-V3 (antibody, human IgG4 S228P, kappa, V domains shown, humanized IgG4/kappa; tested as 293F cell supernatant on Octet; also called hu CTLA4 C1D1-V3) VH: EVQLVESGGGLVQPGRSLRLSCTASGFTFSDNWMNWVRQAPGKGLEWVGQIRNKPYNYETYYSDSVKGRFTISRDDSKSIVYLQMNSLKTEDTAVYYCTGGMDYWGQGTTVTVSS VL: DIQMTQSPSSLSASVGDRVTITCGASEIIYGALNWYQQKPGKSPKLLIYGATNLADGMPSRFSGSGSGRDYTLTISSLQPEDVATYYCQKILSPPPWTFGGGTKVEIKR | 1.16 nM | 0.000259 s⁻¹ | 224000 M⁻¹ s⁻¹ |
